Results published in article PMC4784862, “DNA Sequence Determinants Controlling Affinity, Stability and Shape of DNA Complexes Bound by the Nucleoid Protein Fis”.

Key:
Conditions in all cases: protein: recombinant; chain copies: 2; label: 5'-32P
Fis WT [1] = molecular target: T1, Fis WT (UniProt P0A6R3 1-98); assay: X-ray crystallography; 2.7 A; EMSA: 20 mM Hepes pH 7.5, 0.15 M NaCl, 5% glycerol, 0.5 mg/ml BSA, 1 mM EDTA, 1 mM DTT, 0.1 nM 32P 27 bp probe, 50 ug/ml poly dI/dC; temperature not stated
Fis WT [2] = molecular target: T1, Fis WT; assay: EMSA; t1/2 <0.25 min; EMSA: 20 mM Hepes pH 7.5, 0.15 M NaCl, 5% glycerol, 0.5 mg/ml BSA, 1 mM EDTA, 1 mM DTT, 0.1 nM 32P 27 bp probe, 50 ug/ml poly dI/dC; temperature not stated
Fis WT [3] = molecular target: T1, Fis WT; assay: EMSA; fold printed as 6; EMSA: 20 mM Hepes pH 7.5, 0.15 M NaCl, 5% glycerol, 0.5 mg/ml BSA, 1 mM EDTA, 1 mM DTT, 0.1 nM 32P 27 bp probe, 50 ug/ml poly dI/dC; temperature not stated
Fis WT [4] = molecular target: T1, Fis WT; assay: X-ray crystallography; 2.9 A, C2; EMSA: 20 mM Hepes pH 7.5, 0.15 M NaCl, 5% glycerol, 0.5 mg/ml BSA, 1 mM EDTA, 1 mM DTT, 0.1 nM 32P 27 bp probe, 50 ug/ml poly dI/dC; temperature not stated
Fis WT [5] = molecular target: T1, Fis WT; assay: EMSA; EMSA: 20 mM Hepes pH 7.5, 0.15 M NaCl, 5% glycerol, 0.5 mg/ml BSA, 1 mM EDTA, 1 mM DTT, 0.1 nM 32P 27 bp probe, 50 ug/ml poly dI/dC; temperature not stated
Fis N73A = Fis N73A (UniProt P0A6R3 1-98, N73A); assay: as above
Fis R71A = Fis R71A (UniProt P0A6R3 1-98, R71A); assay: as above
Fis T75A [6] = molecular target: T2, Fis T75A (UniProt P0A6R3 1-98, T75A); assay: EMSA; error as printed; EMSA: 20 mM Hepes pH 7.5, 0.15 M NaCl, 5% glycerol, 0.5 mg/ml BSA, 1 mM EDTA, 1 mM DTT, 0.1 nM 32P 27 bp probe, 50 ug/ml poly dI/dC; temperature not stated
Fis WT [7] = molecular target: T1, Fis WT; assay: EMSA; t1/2 41 min; Table 3 gives error 0.05; EMSA: 20 mM Hepes pH 7.5, 0.15 M NaCl, 5% glycerol, 0.5 mg/ml BSA, 1 mM EDTA, 1 mM DTT, 0.1 nM 32P 27 bp probe, 50 ug/ml poly dI/dC; temperature not stated
Fis WT [8] = molecular target: T1, Fis WT; assay: EMSA; affinity as F1, lifetime increased; EMSA: 20 mM Hepes pH 7.5, 0.15 M NaCl, 5% glycerol, 0.5 mg/ml BSA, 1 mM EDTA, 1 mM DTT, 0.1 nM 32P 27 bp probe, 50 ug/ml poly dI/dC; temperature not stated
Fis WT [9] = molecular target: T1, Fis WT; assay: EMSA; t1/2 8 min; EMSA: 20 mM Hepes pH 7.5, 0.15 M NaCl, 5% glycerol, 0.5 mg/ml BSA, 1 mM EDTA, 1 mM DTT, 0.1 nM 32P 27 bp probe, 50 ug/ml poly dI/dC; temperature not stated
Fis WT [10] = molecular target: T1, Fis WT; assay: EMSA; t1/2 22 min; EMSA: 20 mM Hepes pH 7.5, 0.15 M NaCl, 5% glycerol, 0.5 mg/ml BSA, 1 mM EDTA, 1 mM DTT, 0.1 nM 32P 27 bp probe, 50 ug/ml poly dI/dC; temperature not stated
Fis T75A [11] = molecular target: T2, Fis T75A; assay: EMSA; EMSA: 20 mM Hepes pH 7.5, 0.15 M NaCl, 5% glycerol, 0.5 mg/ml BSA, 1 mM EDTA, 1 mM DTT, 0.1 nM 32P 27 bp probe, 50 ug/ml poly dI/dC; temperature not stated
Fis WT [12] = molecular target: T1, Fis WT; assay: X-ray crystallography; EMSA: 20 mM Hepes pH 7.5, 0.15 M NaCl, 5% glycerol, 0.5 mg/ml BSA, 1 mM EDTA, 1 mM DTT, 0.1 nM 32P 27 bp probe, 50 ug/ml poly dI/dC; temperature not stated
Fis WT [13] = molecular target: T1, Fis WT; assay: EMSA; t1/2 4 min; EMSA: 20 mM Hepes pH 7.5, 0.15 M NaCl, 5% glycerol, 0.5 mg/ml BSA, 1 mM EDTA, 1 mM DTT, 0.1 nM 32P 27 bp probe, 50 ug/ml poly dI/dC; temperature not stated
Fis WT [14] = molecular target: T1, Fis WT; assay: X-ray crystallography; 2.8 A; EMSA: 20 mM Hepes pH 7.5, 0.15 M NaCl, 5% glycerol, 0.5 mg/ml BSA, 1 mM EDTA, 1 mM DTT, 0.1 nM 32P 27 bp probe, 50 ug/ml poly dI/dC; temperature not stated
Fis WT [15] = molecular target: T1, Fis WT; assay: EMSA; t1/2 4 min; EMSA: 20 mM Hepes pH 7.5, 0.15 M NaCl, 5% glycerol, 0.5 mg/ml BSA, 1 mM EDTA, 1 mM DTT, 0.1 nM 32P 27 bp probe, 50 ug/ml poly dI/dC; temperature not stated; remark: listed apart in the source
Fis WT [16] = molecular target: T1, Fis WT; assay: X-ray crystallography; 3.5 A, partially refined; EMSA: 20 mM Hepes pH 7.5, 0.15 M NaCl, 5% glycerol, 0.5 mg/ml BSA, 1 mM EDTA, 1 mM DTT, 0.1 nM 32P 27 bp probe, 50 ug/ml poly dI/dC; temperature not stated
Fis WT [17] = molecular target: T1, Fis WT; assay: EMSA; t1/2 14 min; EMSA: 20 mM Hepes pH 7.5, 0.15 M NaCl, 5% glycerol, 0.5 mg/ml BSA, 1 mM EDTA, 1 mM DTT, 0.1 nM 32P 27 bp probe, 50 ug/ml poly dI/dC; temperature not stated

T1 sequence (P0A6R3 whole entry): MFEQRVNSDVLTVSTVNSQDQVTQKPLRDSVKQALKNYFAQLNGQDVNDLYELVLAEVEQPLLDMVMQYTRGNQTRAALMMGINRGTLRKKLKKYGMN
Chain of Fis R71A (P0A6R3 whole entry R71A): as the sequence (P0A6R3 whole entry) above, with R71A counted along it
T2 sequence (P0A6R3 whole entry T75A): as the sequence (P0A6R3 whole entry) above, with T75A counted along it
Chain of Fis N73A (P0A6R3 whole entry N73A): as the sequence (P0A6R3 whole entry) above, with N73A counted along it

B1: F31 (dsDNA)
DNA 1: AAATTTGTAGGAATTTTCTGCAAATTT
DNA 2: AAATTTGCAGAAAATTCCTACAAATTT
binding result (Fis WT [1]): binds

B2: INV (dsDNA)
DNA 1: TTTAAAGTTTGAATTTTGAGCTTTAAA
DNA 2: TTTAAAGCTCAAAATTCAAACTTTAAA
Kd (Fis WT [2]): 33 ± 3 nM

B3: F33 (dsDNA)
DNA 1: AAAGGTGTTTGAATTTTGAGCACCTTT
DNA 2: AAAGGTGCTCAAAATTCAAACACCTTT
Kd (Fis WT [3]): 0.6 ± 0.1 nM

B4: F35 (dsDNA)
DNA 1: AAATTAGTTTGAATCTCGAGCTAATTT
DNA 2: AAATTAGCTCGAGATTCAAACTAATTT
binding result (Fis WT [4]): binds

B5: INV±9-10T (dsDNA)
DNA 1: TTTATTGTTTGAATTTTGAGCAATAAA
DNA 2: TTTATTGCTCAAAATTCAAACAATAAA
Kd (Fis WT [5]): 0.4 ± 0.1 nM

B6: INV±8C (dsDNA)
DNA 1: TTTAACGTTTGAATTTTGAGCGTTAAA
DNA 2: TTTAACGCTCAAAATTCAAACGTTAAA
Kd (Fis WT [5]): 6 ± 2 nM

B7: F15 (dsDNA)
DNA 1: CCCTTTGTTTGAATTTTGAGCAAAGGG
DNA 2: CCCTTTGCTCAAAATTCAAACAAAGGG
Kd (Fis WT [5]): 0.4 ± 0.2 nM

B8: F1 (±8T) (dsDNA)
DNA 1: AAATTTGTTTGAATTTTGAGCAAATTT
DNA 2: AAATTTGCTCAAAATTCAAACAAATTT
Kd (Fis N73A): 29 ± 0.2 nM
Kd (Fis R71A): 0.5 ± 0.2 nM
Kd (Fis T75A [6]): 0.3 ± 0.8 nM
Kd (Fis WT [7]): 0.2 ± 0.07 nM

B9: INV-CAT (dsDNA)
DNA 1: TTTCATGTTTGAATTTTGAGCATGAAA
DNA 2: TTTCATGCTCAAAATTCAAACATGAAA
Kd (Fis WT [5]): 2.9 ± 1 nM

B10: F1±8U (dsDNA)
DNA 1: AAATTUGTTTGAATTTTGAGCAAATTT
DNA 2: AAATTUGCTCAAAATTCAAACAAATTT
modifications: deoxyuridine for T at ±8 in DNA
binding result (Fis WT [8]): binds

B11: F34 (dsDNA)
DNA 1: AAGCTTGTTTGAATTTTGAGCAACGTT
DNA 2: AACGTTGCTCAAAATTCAAACAAGCTT
Kd (Fis WT [9]): 0.2 ± 0.1 nM

B12: F1±9A (dsDNA)
DNA 1: AAATATGTTTGAATTTTGAGCATATTT
DNA 2: AAATATGCTCAAAATTCAAACATATTT
Kd (Fis WT [10]): 0.5 ± 0.2 nM

B13: F1±8G (dsDNA)
DNA 1: AAATTGGTTTGAATTTTGAGCCAATTT
DNA 2: AAATTGGCTCAAAATTCAAACCAATTT
Kd (Fis T75A [11]): 48 ± 5 nM
Kd (Fis R71A): 450 ± 20 nM
binding result (Fis WT [12]): binds

B14: F18 (dsDNA)
DNA 1: AAATTTGTTGGAATTTTCAGCAAATTT
DNA 2: AAATTTGCTGAAAATTCCAACAAATTT
binding signal (Fis WT [13]): 10 fold weaker than F1

B15: F14 (dsDNA)
DNA 1: GGGTTTGTTTGAATTTTGAGCAAACCC
DNA 2: GGGTTTGCTCAAAATTCAAACAAACCC
Kd (Fis WT [5]): 0.5 ± 0.1 nM

B16: F28 (dsDNA)
DNA 1: AAATTTGTTTGAGCGTTGAGCAAATTT
DNA 2: AAATTTGCTCAACGCTCAAACAAATTT
Kd (Fis R71A): 470 ± 100 nM

B17: F1±8A (dsDNA)
DNA 1: AAATTAGTTTGAATTTTGAGCTAATTT
DNA 2: AAATTAGCTCAAAATTCAAACTAATTT
binding result (Fis WT [12]): binds

B18: F32 (dsDNA)
DNA 1: AAATTTGGAGGAATTTTCTCCAAATTT
DNA 2: AAATTTGGAGAAAATTCCTCCAAATTT
binding result (Fis WT [14]): binds
Kd (Fis T75A [11]): 76 ± 10 nM
Kd (Fis R71A): 73 ± 11 nM

B19: INV±8T (dsDNA)
DNA 1: TTTAATGTTTGAATTTTGAGCATTAAA
DNA 2: TTTAATGCTCAAAATTCAAACATTAAA
Kd (Fis WT [15]): 2.3 ± 0.7 nM

B20: F36 (dsDNA)
DNA 1: AAATTTGTTTGAATCTCGAGCAAATTT
DNA 2: AAATTTGCTCGAGATTCAAACAAATTT
binding result (Fis WT [16]): binds

B21: F27 (dsDNA)
DNA 1: AAATTTGTTTGAACTTTGAGCAAATTT
DNA 2: AAATTTGCTCAAAGTTCAAACAAATTT
Kd (Fis T75A [11]): 3.5 ± 0.9 nM
Kd (Fis WT [5]): 0.2 ± 0.1 nM
Kd (Fis R71A): 2.8 ± 0.5 nM

B22: INV-GAT (dsDNA)
DNA 1: TTTGATGTTTGAATTTTGAGCATCAAA
DNA 2: TTTGATGCTCAAAATTCAAACATCAAA
Kd (Fis WT [5]): 2 ± 0.6 nM

B23: F1±8C (dsDNA)
DNA 1: AAATTCGTTTGAATTTTGAGCGAATTT
DNA 2: AAATTCGCTCAAAATTCAAACGAATTT
Kd (Fis WT [17]): 0.7 ± 0.2 nM

B24: F16 (dsDNA)
DNA 1: GCGGTTGTTTGAATTTTGAGCAACCGC
DNA 2: GCGGTTGCTCAAAATTCAAACAACCGC
Kd (Fis WT [5]): 0.5 ± 0.2 nM

B25: INV±8G (dsDNA)
DNA 1: TTTAAGGTTTGAATTTTGAGCCTTAAA
DNA 2: TTTAAGGCTCAAAATTCAAACCTTAAA
Kd (Fis WT [5]): 250 ± 20 nM
